In a protein production outcome set (Wang et al. 2014):

Test: label from the status in PepcDB records

| Sequence | protein production |
| --- | --- |
| MHLQPQKKKKHLQTFLHPQQTQVLQTICLQPRQKGRVDSQLIVLQAQQQQALQVPVEAVNCSENMRRLSISEDFSKALQILYNLGKISDNRESFDNTXFYEENLGKALRVNDNTVKPSAPVSTQESLRTVELTEGFRHQCIFDFCRRRDILRYFFDPIKANLSKGHGSNFDKSDSVACTLHPYTPYPHLQQLWVYYMLTYTQYLPLRLVGGQNRCEGRLEVRHEGEWGTVCDDRWNIKNARVVCRLLGCGPALGAPGRSHFGPGTGPILMNEVRCSGREDSLESCAHAGWTRHNCHHREDASVICAGPADSLVPKDNAQLSCLPHLFQAVIDRGYLRRLGYSSWDIHLNDKMCRPQVTGRYLIFNIPYGHCGTVMQKHQGSLSYSNSIRGRTQGHPGRVIVRHKVPQVKFTCKVDGQSAVEIVHGSDTKDEASYDVSISFLQSPVSQNTGGRAPLASQREEVFLQATLHSHNPNLRLVVDTCVASPDASDFTTVKYDLIQEGCIKDNSYSNLHAPEKNVAQFKFNAFSFLKSYDVVYVQCKVAVCRLGDHSSRCSQGCLNRGRRGAGSAEVREEQTEYFQTVGPLKIHREANQSKVLV | failed |
| MRWRHPSALRKADERGRRTPCVVSATSLAVGRIALALLLVVLNGFFVAAEFAFVRLRSASVETLVQDGRRGATAVKEATDNLDDYLAVSQLGITIASLGLGWVGEPAVAVLVDPLLEPVLPAPVRHTVTVALGFGIVTLLHVVYGELAPKTIAIQRAERVALVVAPVMKLFYYVFLPGTILFNGIATRSVQLIGVSPETEGHDTHTEPEILSVLSEASAAGRISPAEVSMIEHVFSLDDTTVREIMRPRPDVTSVSADTPLPELRTMAASGEYTRYPVTEGPDDDVIGFVDVKDILRASDAIDESGDVTARELSRPVVVVPETLRVDELLAEFQAEHRQMAVVIDEWGAFEGLATIEDALEVIVGDIRDQFDLATHAQSIEPRDDGGYEVPGAVSITELNDHLGTDFENEAVETVAGLVVSRLGHAPTVGDRAVIDTHTFRVTGVDGARITSLTVTPDS | failed |
| VNFEVKDQTLMMELVPERLRGETATFDIEADGKVYVEKGRRVTARHIRQLEKDGVNFIEVPVEYIVGKVSAKDYVNEATGELIITANQEISLEALANLSQAG | not failed |
| MDITMKIAPLLLALGAAGLACCAHAADPKPFTVQQLVKLNKLHSAVVSHDGTKLVYGLKTVNDKGEASSDLYLLDLTQADAKPLQLTSAAGTEHDISFANDDKSIYFLASRSGSSQLFQLPLTGGEAQQVSDLPLDIDGYKLSNDGKQIVLSMRVFPECKDLACSKDKFKAEEERKSTGREYKQLMVRHWDTWEDHARNHLFVGTLNGEKLTKVVDITQGLDTETPPKPFSGMEEVTFTPDGQYVVYSAKAPSKDQAWTTNYDLWQVSVNGGKATNLTADNIAWDAQPTFSSDGRYMAYLAMTKPGFEADRYRIMLRDTSTGQSKEVAPLWDRSPSSLMFAPDNRTLYVTAQDIGQVSIFKVNTQFGDVQSVYSDGSNSLIAIADDQLIFDSKTLVEPGDLYRINTDGQGLKRLTEVNKDKLAEIKFGEFQQFSFKGWNNEDVYGYWIKPANYQEGKKYPIAYLVHGGPQGSFGNGFSGRWNAQLWAGAGYGVVMVDFHGSTGYGQAFTDSISQDWGGKPLEDLQKGLAAVSQQQKWLDPQNACALGGSYGGYMMNWIQGNWNDGFKCLVNHAGLFDMRSMYYVTEEVWFPEHEFGGTYQDNKALYEKFNPVNYVENWKTPMLVIHGEKDFRVPYGQGLAAFSFMQRKGIPSELLIYPDENHWILKPENLEQWYANVFRWMDSWTKK | failed |
| MGLFTDGFKLLKKASEPLYKTPKSIQETIEIMAVAENGIFEVSKNKYSKCYRFQDINYTTATEDEQIGIFERYCKFLNSLDCNYKITINNKNKNMDELRDKVLIAEKNDGFNNYRRIYNDIIEEKIIEGRQGIEQERYLTITIERKNFEEAKAQFATLEATIHKAFIELGAEIVPLNGNERLKVLYDYYHLGDEGSFDFDIKKAKKVGADFRNDLCNGMVKYFPDHFEDESKFCKALFIKKYPSSLSDRFINEITSLPVHSITSIDVVPVPKDLTTKVLQKKYLGIESDIIKQQRVRNKNNDFSTEISYAKRTEKKEIEEIMDDVRENDQCLFFVGVTIILMAESKKELESVCETVETIGKRNSCTIDTHYLKQREALNTALPIGVRQVETMRTLLTQSLAVLMPFNVQELNDSTGNYYGINQISKNVNIGNRKKLINGNGFVFGVPGSGKSFFCKMEMGSVFLSGDDEIIVIDPMNEYFDIAETYGGTVVNMSTYTDNYVNPLEMDVWSLDPNDSKGMVREKGEFMLGLCEQCIGDSLNSRQKSIIDRCVRKLYIDIARSKEKYIPVMSDFYDILMAQPEDEAKDIALSLELFVNGSLNIFNHQTNVDVDNRFTVYGIRDLGTELSPITMLVMMESIQNRIVENGKRGKATWLYIDEFHVLLNSEYSAKYLQQLWKKVRKQGGLCTGITQNVVDLLQNYTATTMLANSEFVALLKQANTDSSKMAEVIGVSEAQLRFVTNTASGMGLIKCGSVVIPFDNQISKDTDLYKLYNTNIHEIIEMKKHANEKNVNSL | failed |
| MRLSILRARSTGSGQASPRASRTRGARSAAAGGSWVVIFLPLHCGTRSLTMPRRARNAQTASSCSLERPNEWKEPPPVSGFEVTIVDAESVIAWVKAGKVTVFDVREPEEFAAAHIEGAIPNPLSRFDASLIPTDSPVPVVLHCRSGVRCGHAADRLRASGFQGKINRMAGGIIAWQAAGGPVVSG | failed |
| MLLIFFKKYEQSDIMRKLFLLSILMIGVIVAFAGCVEESKTTTQLQQTTQSESQKAETQPKLGVNVVRYAETFKLYPHWDEGYCVVADSVGNKFVLVEGNAKAPNISDGKIIKVPVKRIVTDFYCPIISAADILNAYHHTIVGAPKYAVEKSPKLKELFDEGKVVDIGSPSKGVNYELIVNLTPDIVFLGDWKSEDVVEEKLKELGVTVSRFYTYQEPTYMGRVEWIKFAAAFWGSNAYKKADKWFENVVKVRENILKKVQNVTNEPTVVIFSWSKTKNMPGIYGNDSYYSKMIAEFKGKNVFDDYNRGYQYVDKETFYERAMNADVVILIWFYGDVKTKEDLLKINPNFAEFKAFKTGRFYVSHPDYYVWEARDPAGYMMDFAKMIHPELFGGDDDLKYYYKIK | failed |
| MYVLIGGAGLVGLTLAQKLVELGHTVAIIDVDHTACRYAREQVGAMAFEGSAVSTEVLLEAGIRKADALAAVLRNDALNLAMVMLAKHYGVSHILSRMRHADFAQPLRLAGANHVISTVELSVSTMVNAIEYPQVESMMHFEQGQIEVLKISIPNSCYVANRSLAEIAQDSRFPSGSLIIGYQPHPHEDLVIPNGSTVLESGSTILIATKPGSLHQVIDFIEGCKLEHHHHHH | not failed |
| MTATPGTTVPAPIMQTTDNSLTWLLQNLLDRTPGTRHALVLSRDGLRLCWTEHLTLDRADQLAAICSGIQALAQGASVEFGNGTGGVRHSMTEFHGGLLFIVEAGEGAHLAVVAVEDADPGVVGHQMTELVEQIGEHLRAEPRHAVPGGSSS | failed |
| MNEIYDREQMIKLLDLAKNTEMELPINLAIGLGLRISEVLGLTWDNIDFEENTITVNKITSRINGSVILKEPKTESSVRKISSPKELMSLLKEYKIKQNKNLLKSSIRNNNNLLFFNKKCEPIAEDVMSKKFKRFLEKNELPHIRFHDLRHSHVTLLINSKVPIKVISERVGHSNISTTLSVYSHVLKEMDKEASDKISESLFNANLEHHHHHH | not failed |
| MSGITMAMRGPRLEFAVGAFLLLTLASLLVLAVASTNQRWGFGSSQYTLTARFSQIGQLRAQAPVKIGGVTIGKVSDISLDPTKFDSIVTLSLDTRYKDLPADTSAGIFTSGLLGESYIGLQPGGDPDTLKPGDEIGFTQPAVDLLQLVGKYMFSGGGSGSNANVPAATNGQAPAPARTAPPPTEPHQ | failed |
| MDSRKALDGLAVTLMIILCLTWGLQQVALKATSAEIAPLMQIAIRSGISALLVGIMMAVRGERLSLAGGMWRPGLAVGFLFALEYLLVGEGLRHTTASHMVIFLYTAPVFAAIGLHLKLRSERLRPVQWFGIALAFGGIVVSFYGRGGHTASLSVASVIWGDVLGLAAGMAWGMTTVVIRTSRLAACSATQTLLFQLLGAFILLLPAAAVLDQTYFNPTRLGWACLIFQTLIVSFASFLVWFWLLRHYVASRLGVLSFMTPLFGVALGAWLLNEPLERGFLAGALLVLTGIILVSGHGWLRQLGNGAGAAVQEQAREPDLP | failed |
| MNIQSELEFKFAHYLINNAVEASFCLGDNWQFLYVNDATCRMTEYSREQLLSMNLQDIDVDFALHDWEEIRQKNNYTFKTRYRSQSGRIFLVEMSLTFLEDQERRFSCVFVREKS | not failed |
| MTKVIAITGKGGTGKTAVAALLIRSLSKKGQFILAVDADADTNLPETLGCENVKTIGDAKEFLQAEITKPRPDNPDMNKESVLQSKVYEIIEEMPGYDLLVMGRPEGSGCYCYVNNLLRGIMDKLVKNYDLVVIDAEAGLEHFSRKIIRDIDDLIVVTDASRRGFRTAERIHELVNELESNIGSIHVIANKVTDANREKLVKLAEELKLNLIGMIPLDPKIEEMDIKGIPLFEIPDDSVAAVEIENIVKKLGF | failed |
| KEETEIIEGEVVEIQIDRPATGTGSKVGKLTLKTTEMETIYDLGTKMIESLTKDKVQAGDVITIDKATGKISKLGRSFTRAR | not failed |
| MTRQRNREGLEFTAANAQAVEAFDETVKRYLQFHGDIGGALKATFAHDAQMPMALILRGYFYLLMGLRPLADKAAQLAAGLQPGRAALTEREQRHLDALACWSRDSLQAATEHWERIARAHPRDILAVKMAHFGYFYLGRSARIRDGIAQAIDSWSEDDALYPYMLSMMAFGQVEAGELARGEASGRRALELTPHDPWAVHAVAHALEPTDRKADALAWIARHERHWSEANNFRHHIHWHRALIHLEQGDAQAALDWYDRTVFAADSVEYLDVCNEASLLMRLELSGVDVGRRWEAVAQKSAARIDDQVMGFADVHYAMALCSSANPEHRQQAQALAERLERYSQGGTDNAQAYRQAVVPIVGALLAFRQGRYRESADALLACADVAHAAGGSHDQRDVYEYLTAEALFRAAPAHPDTIAYLARRSFRAPHNPHNWRLYLQSLEQSGQDRTLAAATARRQAAAHATA | failed |
| MAEILRAENIKKVIRGYEILKGISLSVKKGEFVSIIGASGSGKSTLLYILGLLDAPTEGKVFLEGKEVDYTNEKELSLLRNRKLGFVFQFHYLIPELTALENVIVPMLKMGKPKKEAKERGEYLLSELGLGDKLSRKPYELSGGEQQRVAIARALANEPILLFADEPTGNLDSANTKRVMDIFLKINEGGTSIVMVTHERELAELTHRTLEMKDGKVVGEITRV | not failed |
| MGHHHHHHSHMDSHDLQRFLSDFRDLMSWINGIRGLVSSDELAKDVTGAEALLERHQEHRTEIDARAGTFQAFEQFGQQLLAHGHYASPEIKQKLDILDQERADLEKAWVQRRMMLDQCLELQLFHRDCEQAENWMAAREAFLNTEDKGDSLDSVEALIKKHEDFDKAINVQEEKIAALQAFADQLIAAGHYAKGDISSRRNEVLDRWRRLKAQMIEKR | not failed |
| MLWFAMSSVLRVRPTKIELIRLKRRKALAEKVHRILRERLTILVNEFLVRVREAYSLRRTVNDLVFNLYNDSVLLNSVYGEYGFQYFRSITVEGLRAVIGVENIMGVKTRSAVVKHSKTIEYVYPGFDSFRDGARKLIEAIIELGRAEQALIALGREIERTKRKVNALKYIIIPRLANTIRYLNMKFEEREREEKARLKRIKSVLEKRR | failed |
| MDLLKNIFKGDKVIWIIFLCLCLISIIEVFSAASTLTYKSGDHWGPITQHSIILMVGAVVVVLMHNIPYKWFQVFPVFLYPISVVLLAFVTLMGVITGDRVNGAARWMSFMGLQFQPSELAKMAVIIAVSFILSKKQDDEGANPKAFKYIMILTGLVCMLIAPENLSTAMLLFGVVVLMMFIGRVAFKKLAMLLGGLALVGCLGAVFLLAIPKDTDIPFLHRFDTWKSRITNFTEKEEVPAAKFDIDKDAQIAHARIAIATSNVIGKAPGNSIQRDFLSQAFSDFIFAIIIEELGLVGGAFVVILYIWLLVRTGRIAQKCERTFPAFLVMGIALMLVSQAILNMMVAVGLFPVTGQPLPLISKGGTSTLINCAYIGMILSVSRYTAYLEEKKENPAPLLTQSEGNETIASEAQTAAEPTAEVLNSDAKFEE | failed |
